B1: Hairpin Ribozyme (parent)
chain: GUCCUCUUUCACGUGCGCGUGAAAGAGAGAAGUGAACCAGAGAAACACACGUUGUGGUAUAUUACCUGGUA

Variants of: B1
Assay: self-cleavage, relative activity (ratio to wild type); higher = more cleavage; co-transcriptional

Row | Variant | self-cleavage
1 | GUCCUCUUUCACGUGCGCGUGAAAGAGAGAAGUGAACCCGAGAAACAGACGUUGUGGUAUAUUACCUGGUA | 0.256
2 | GUCCUCUUUCACGUGCGCGUGAAAGAGAGAAGUGAACCGGAGAAACACACGUUGUGGUAUAUUGCCUGGUA | 0.275
3 | GUCCUCUUUCACGUGCGCGUGAAAGAGAGAAGUGAACUAGAGAAACACACGUUGUGGUAUAUUACCUGCUA | 0.158
4 | GUCCUCUUUCACGUGCGCGUGAAAGAGAGAAGUGAACCCGAGAAACACACGUCGUGGUAUAUUACCUGGUA | 0.42
5 | GUCCUCUUUCACGUGCGCGUGAAAGAGAGAAGUGAACCCGAGAAACACACGUUGUGGCAUAUUACCUGGUA | 0.568
6 | GUCCUCUUUCACGUGCGCGUGAAAGAGAGAAGUGAACUAGAGAAACACACGCUGUGGUAUAUUACCUGGUA | 0.598
7 | GUCCUCUUUCACGUGCGCGUGAAAGAGAGAAGUGAACCCGAGAAACACACGUUGUGGUAUAUUACCUGGAA | 0.188
8 | GUCCUCUUUCACGUGCGCGUGAAAGAGAGAAGUGAACCCGAGAAACACACGUUGUGGUAUAUUACCUGGGA | 0.232
9 | GUCCUCUUUCACGUGCGCGUGAAAGAGAGAAGUGAACCCGAGAAACACACGUUGUGGUAUAUUAGCUGGUA | 0.167
10 | GUCCUCUUUCACGUGCGCGUGAAAGAGAGAAGUGAACCCGAGAAACACACGUUGUGGUAUAUUAUCUGGUA | 0.401
11 | GUCCUCUUUCACGUGCGCGUGAAAGAGAGAAGUGAACCCGAGAAACACACUUUGUGGUAUAUUACCUGGUA | 0.64
12 | GUCCUCUUUCACGUGCGCGUGAAAGAGAGAAGUGAACCCGAGUAACACACGUUGUGGUAUAUUACCUGGUA | 0.123
13 | GUCCUCUUUCACGUGCGCGUGAAAGAGAGAAGUGAACCCGAGCAACACACGUUGUGGUAUAUUACCUGGUA | 0.14
14 | GUCCUCUUUCACGUGCGCGUGAAAGAGAGAAGUGAACUAGAGAAACACACGUUGUGGUAGAUUACCUGGUA | 0.431
15 | GUCCUCUUUCACGUGCGCGUGAAAGAGAGAAGUGAACCGGAGAAACACAAGUUGUGGUAUAUUACCUGGUA | 0.196
16 | GUCCUCUUUCACGUGCGCGUGAAAGAGAGAAGUGAACCGGAGAAACACAUGUUGUGGUAUAUUACCUGGUA | 0.148
17 | GUCCUCUUUCACGUGCGCGUGAAAGAGAGAAGUGAACCGGAGAAACACACGUUAUGGUAUAUUACCUGGUA | 0.143
18 | GUCCUCUUUCACGUGCGCGUGAAAGAGAGAAGUGAACCGGAGAAACACACGUUCUGGUAUAUUACCUGGUA | 0.131
19 | GUCCUCUUUCACGUGCGCGUGAAAGAGAGAAGUGAACCCGAGAUACACACGUUGUGGUAUAUUACCUGGUA | 0.129

Row | Variant | self-cleavage
20 | GUCCUCUUUCACGUGCGCGUGAAAGAGAGAAGUGAACUAGAGAAACACACGUGGUGGUAUAUUACCUGGUA | 0.431
21 | GUCCUCUUUCACGUGCGCGUGAAAGAGAGAAGUGAACUAGAGAAACACACGUCGUGGUAUAUUACCUGGUA | 0.823
22 | GUCCUCUUUCACGUGCGCGUGAAAGAGAGAAGUGAACUAGAGAAACACACGUAGUGGUAUAUUACCUGGUA | 0.731
23 | GUCCUCUUUCACGUGCGCGUGAAAGAGAGAAGUGAACCGGAGAACCACACGUUGUGGUAUAUUACCUGGUA | 0.122
24 | GUCCUCUUUCACGUGCGCGUGAAAGAGAGAAGUGAACCCGAGAAACACACGUUGUGGUAUAUUACCGGGUA | 0.548
25 | GUCCUCUUUCACGUGCGCGUGAAAGAGAGAAGUGAACCGGAGAAACACACGUUGUGGUAUUUUACCUGGUA | 0.152
26 | GUCCUCUUUCACGUGCGCGUGAAAGAGAGAAGUGAACCCGAGAAACACACGUUGUGGUAUAUUACCUGGUC | 0.88
27 | GUCCUCUUUCACGUGCGCGUGAAAGAGAGAAGUGAACCGGAGAAACACACGGUGUGGUAUAUUACCUGGUA | 0.3
28 | GUCCUCUUUCACGUGCGCGUGAAAGAGAGAAGUGAACCGGAGAAACACACGCUGUGGUAUAUUACCUGGUA | 0.26
29 | GUCCUCUUUCACGUGCGCGUGAAAGAGAGAAGUGAACCCGAGAAACACACGUUGUGGUAUCUUACCUGGUA | 0.117
30 | GUCCUCUUUCACGUGCGCGUGAAAGAGAGAAGUGAACUAGAGAAACACACGUUGGGGUAUAUUACCUGGUA | 0.137
31 | GUCCUCUUUCACGUGCGCGUGAAAGAGAGAAGUGAACCGGAGAAACACACGUUGUGGUAUAUUACCUUGUA | 0.107
32 | GUCCUCUUUCACGUGCGCGUGAAAGAGAGAAGUGAACUAGAGAAACACACGUUGUGGUAUAUGACCUGGUA | 0.186
33 | GUCCUCUUUCACGUGCGCGUGAAAGAGAGAAGUGAACUAGAGAAACACACGUUGUGGUAUAUCACCUGGUA | 0.128
34 | GUCCUCUUUCACGUGCGCGUGAAAGAGAGAAGUGAACCGGAGAAACACACGUUGUGGUCUAUUACCUGGUA | 0.122
35 | GUCCUCUUUCACGUGCGCGUGAAAGAGAGAAGUGAACCGGAGAAACACACGUUGUGGUGUAUUACCUGGUA | 0.116
36 | GUCCUCUUUCACGUGCGCGUGAAAGAGAGAAGUGAACCCGAGAAACACACGUUGUAGUAUAUUACCUGGUA | 0.193
37 | GUCCUCUUUCACGUGCGCGUGAAAGAGAGAAGUGAACCGGAGAAACACACGUUGUGGUAUAUUAGCUGGUA | 0.152
38 | GUCCUCUUUCACGUGCGCGUGAAAGAGAGAAGUGAACCCGAGAAACACACGAUGUGGUAUAUUACCUGGUA | 0.543
